# Measured values published in the supplement of paper PMC7877785.
# ± gives the uncertainty stated by the source.
# Assay: self-splicing fitness, log relative to wild type (ln ratio); higher = more splicing; Tetrahymena group I intron in knt gene, E. coli kanamycin selection, DiMSum; sequences stand for … in CUCUCU…GGAGGGAAAAGUUAUCAGGCAUGCACCUGGUAGCUAGUCUUUAAACCAAUAGAUUGCAUCGGUUUAAAAGGCAAGACCGUCAAAUUGCGGGAAAGGGGUCAACAGCCGUUCAGUACCAAGUCUCAGGGGAAACUUUGAGAUGGCCUUGCAAAGGGUAUGGUAAUAAGCUGACGGACAUGGUCCUAACCACGCAGCCAAGUCCUAAGUCAACAGAUCUUCUGUUGAUAUGGAUGCAGUUCACAGACUAAAUGUCGGUCGGGGAAGAUGUAUUCUUCUCAUAAGAUAUAGUCGGACCUCUCCUUAAUGGGAGCUAGCGGAUGAAGUGAUGCAACACUGGAGCCGCUGGGAACUAAUUUGUAUGCGAAAGUAUAUUGAUUAGUUUUGGAGUACUCGUGGUCG
# How it was run: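 A randomised library covering all eight P1ex-region intron nucleotides was built with the intron in the knt kanamycin-resistance gene on pET-22b(+) and held in E. coli BL21(DE3). Cells were grown overnight at 37°C or 30°C on LB agar, with or without 25 μg/mL kanamycin, plus 100 μg/mL carbenicillin, 50 μM IPTG and 0.2% rhamnose, and pooled colonies were amplicon-sequenced on an Illumina HiSeq 2500. DiMSum fitness is the error-weighted combination of wild-type-normalised replicate fold changes, kanamycin versus none.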
Sequence,self-splicing fitness (ln) (30 °C),self-splicing fitness (ln) (37 °C)
AUUUAGCAAUAUUACGUGAU,-0.978 ± 0.12,-0.863 ± 0.12
AUUUAGCAAUAUUACGUGUA,-2.42 ± 0.23,-1.5 ± 0.17
AUUUAGCAAUAUUACGUGUU,-1.73 ± 0.14,0.39 ± 0.14
CAAAAGCAAUAUUACGAAAG,-0.791 ± 0.077,-0.705 ± 0.097
CAAAAGCAAUAUUACGAACU,-2.51 ± 0.19,-1.3 ± 0.21
CAAAAGCAAUAUUACGAAGG,-1.87 ± 0.11,-0.758 ± 0.13
CAAAAGCAAUAUUACGAAUU,-3.52 ± 0.18,-2.27 ± 0.22
CAAAAGCAAUAUUACGACAG,-0.12 ± 0.062,-0.154 ± 0.083
CAAAAGCAAUAUUACGACUA,-1.52 ± 0.13,-0.952 ± 0.12
CAAAAGCAAUAUUACGACUU,-1.83 ± 0.098,-0.224 ± 0.098
CAAAAGCAAUAUUACGAGAA,-1.51 ± 0.24,-2.47 ± 0.25
CAAAAGCAAUAUUACGAGCC,-3.49 ± 0.3,–
CAAAAGCAAUAUUACGAGCG,-0.129 ± 0.077,0.342 ± 0.097
CAAAAGCAAUAUUACGAUAG,-0.0755 ± 0.065,0.3 ± 0.083
CAAAAGCAAUAUUACGAUCG,0.0933 ± 0.07,0.514 ± 0.09
CAAAAGCAAUAUUACGCACA,-1.75 ± 0.1,-0.746 ± 0.11
CAAAAGCAAUAUUACGCACG,-1.5 ± 0.098,-0.59 ± 0.12
CAAAAGCAAUAUUACGCCAA,-3.4 ± 0.36,-2.1 ± 0.24
CAAAAGCAAUAUUACGCCAG,-0.849 ± 0.075,-1.32 ± 0.09
CAAAAGCAAUAUUACGCCCC,-3.27 ± 0.3,–
CAAAAGCAAUAUUACGCUUU,-3.96 ± 0.21,-2.55 ± 0.17
CAAAAGCAAUAUUACGGAUA,-3.27 ± 0.31,-1.81 ± 0.16
CAAAAGCAAUAUUACGGGAA,-2.69 ± 0.23,-1.13 ± 0.2
CAAAAGCAAUAUUACGGGGU,-4.06 ± 0.2,-2.7 ± 0.18
CAAAAGCAAUAUUACGGGUG,-0.689 ± 0.046,-0.361 ± 0.076

Sequence,self-splicing fitness (ln) (30 °C),self-splicing fitness (ln) (37 °C)
CAAAAGCAAUAUUACGGUGC,-3.76 ± 0.24,-2.8 ± 0.24
CAAAAGCAAUAUUACGGUUU,-2.93 ± 0.11,-1.21 ± 0.1
CAAAAGCAAUAUUACGUACG,-0.125 ± 0.061,0.143 ± 0.07
CAAAAGCAAUAUUACGUACU,-2.74 ± 0.11,-0.995 ± 0.09
CAAAAGCAAUAUUACGUAUC,-4.08 ± 0.21,-1.02 ± 0.15
CAAAAGCAAUAUUACGUGAG,-1.06 ± 0.04,-0.328 ± 0.069
CAAAAGCAAUAUUACGUGCG,-1 ± 0.051,-0.35 ± 0.063
CAAAAGCAAUAUUACGUUCU,-1.3 ± 0.14,-0.926 ± 0.14
CAACAGCAAUAUUACGACGG,-0.0366 ± 0.058,0.186 ± 0.085
CAACAGCAAUAUUACGAGAU,-3.74 ± 0.2,-1.79 ± 0.15
CAACAGCAAUAUUACGAGGG,-2.38 ± 0.073,-2.2 ± 0.094
CAACAGCAAUAUUACGAGGU,-4.43 ± 0.29,-2.24 ± 0.17
CAACAGCAAUAUUACGAUAG,-0.377 ± 0.052,0.653 ± 0.07
CAACAGCAAUAUUACGAUUG,-2.22 ± 0.063,-1.42 ± 0.073
CAACAGCAAUAUUACGCAGU,-2.78 ± 0.19,-3.62 ± 0.3
CAACAGCAAUAUUACGCAUU,-3.14 ± 0.091,-1.79 ± 0.089
CAACAGCAAUAUUACGCCAU,-3.25 ± 0.11,-2.94 ± 0.14
CAACAGCAAUAUUACGCCCG,-0.408 ± 0.098,0.465 ± 0.12
CAACAGCAAUAUUACGCGUG,-4.02 ± 0.22,-3.31 ± 0.16
CAACAGCAAUAUUACGCUCC,-1.72 ± 0.098,-0.675 ± 0.14
CAACAGCAAUAUUACGCUGA,-3.74 ± 0.2,-3.02 ± 0.2
CAACAGCAAUAUUACGGGUA,-3.03 ± 0.12,-1.22 ± 0.084
CAACAGCAAUAUUACGGGUG,-1.65 ± 0.051,-0.569 ± 0.057
CAACAGCAAUAUUACGGUAU,-3.52 ± 0.1,-1.9 ± 0.09
CAACAGCAAUAUUACGGUUC,-1.89 ± 0.075,-1.34 ± 0.1

Sequence,self-splicing fitness (ln) (30 °C),self-splicing fitness (ln) (37 °C)
CAACAGCAAUAUUACGUACG,-0.0141 ± 0.079,0.194 ± 0.11
CAACAGCAAUAUUACGUCAU,-3.92 ± 0.12,-1.86 ± 0.1
CAACAGCAAUAUUACGUCUU,-1.48 ± 0.061,-0.62 ± 0.07
CAACAGCAAUAUUACGUUUA,-1.62 ± 0.086,-0.887 ± 0.073
CAAGAGCAAUAUUACGAAAC,-2.91 ± 0.36,–
CAAGAGCAAUAUUACGAAGA,-1.75 ± 0.35,-3.14 ± 0.43
CAAGAGCAAUAUUACGAAUA,-2.52 ± 0.34,-2.28 ± 0.36
CAAGAGCAAUAUUACGAUGG,-1.1 ± 0.091,-0.943 ± 0.077
CAAGAGCAAUAUUACGCAUG,-3.69 ± 0.44,-2.53 ± 0.29
CAAGAGCAAUAUUACGCCUA,–,-1.91 ± 0.43
CAAGAGCAAUAUUACGCGGG,-2.7 ± 0.25,-2.89 ± 0.34
CAAGAGCAAUAUUACGCGGU,-3.05 ± 0.17,-1.81 ± 0.21
CAAGAGCAAUAUUACGCUAG,–,-2.98 ± 0.35
CAAGAGCAAUAUUACGGACU,–,-2.75 ± 0.28
CAAGAGCAAUAUUACGGCCU,-3.5 ± 0.25,-1.27 ± 0.33
CAAGAGCAAUAUUACGGCGU,-3.47 ± 0.34,-1.92 ± 0.21
CAAGAGCAAUAUUACGGCUU,-3.51 ± 0.39,-2.36 ± 0.17
CAAGAGCAAUAUUACGGGAA,-2.06 ± 0.11,-3.01 ± 0.18
CAAGAGCAAUAUUACGGGUC,-3.71 ± 0.21,-2.17 ± 0.17
CAAGAGCAAUAUUACGGUAG,-1.18 ± 0.076,-1.01 ± 0.12
CAAGAGCAAUAUUACGGUCC,-2.01 ± 0.35,-1.76 ± 0.33
CAAGAGCAAUAUUACGUCCU,-3.32 ± 0.43,-2.24 ± 0.29
CAAGAGCAAUAUUACGUCGC,-4.54 ± 0.38,-2.38 ± 0.29
CAAGAGCAAUAUUACGUUAG,-1.97 ± 0.11,-0.995 ± 0.12
CAAUAGCAAUAUUACGACGU,-2.06 ± 0.11,-0.956 ± 0.11

Sequence,self-splicing fitness (ln) (30 °C),self-splicing fitness (ln) (37 °C)
CAAUAGCAAUAUUACGACUC,-3.34 ± 0.24,-0.701 ± 0.12
CAAUAGCAAUAUUACGACUG,-0.326 ± 0.063,-0.0987 ± 0.081
CAAUAGCAAUAUUACGAGGG,-3.54 ± 0.16,-0.649 ± 0.13
CAAUAGCAAUAUUACGCAGA,-3.78 ± 0.42,-2.14 ± 0.18
CAAUAGCAAUAUUACGCAGU,-3.56 ± 0.26,-2.12 ± 0.21
CAAUAGCAAUAUUACGCCAU,-3.21 ± 0.34,-2.43 ± 0.26
CAAUAGCAAUAUUACGCGCG,-0.577 ± 0.094,-0.206 ± 0.1
CAAUAGCAAUAUUACGCUAU,-2.69 ± 0.33,–
CAAUAGCAAUAUUACGCUCG,-0.561 ± 0.074,-0.204 ± 0.092
CAAUAGCAAUAUUACGCUUA,-2.06 ± 0.1,-1.74 ± 0.11
CAAUAGCAAUAUUACGGAAC,-3.98 ± 0.33,-3.27 ± 0.47
CAAUAGCAAUAUUACGGAGA,-2.75 ± 0.33,-2.08 ± 0.43
CAAUAGCAAUAUUACGGAUU,-3.94 ± 0.2,-3.55 ± 0.3
CAAUAGCAAUAUUACGGGGC,-2.73 ± 0.22,-2.45 ± 0.23
CAAUAGCAAUAUUACGGUAG,-1.34 ± 0.097,-0.488 ± 0.1
CAAUAGCAAUAUUACGUCAA,-3.04 ± 0.22,-2.01 ± 0.28
CAAUAGCAAUAUUACGUCUG,-0.324 ± 0.1,-0.58 ± 0.13
CAAUAGCAAUAUUACGUGCG,-0.75 ± 0.072,-0.0882 ± 0.08
CAAUAGCAAUAUUACGUUCA,-3.43 ± 0.25,-2.59 ± 0.24
CACAAGCAAUAUUACGAAUC,-4.04 ± 0.46,-2.37 ± 0.18
CACAAGCAAUAUUACGAGUA,-1.9 ± 0.085,-0.487 ± 0.078
CACAAGCAAUAUUACGCCGG,-0.875 ± 0.081,-0.35 ± 0.095
